Values belong to the binder of their own block, whether it stands above or below them.
Assays:
[1] = target: T1, murine PD-1 (murine, UniProt Q02242 25-167, limits assumed); test: murine PD-1 binding ELISA
T1 construct: also called mouse PD-1
T1 sequence (looked up): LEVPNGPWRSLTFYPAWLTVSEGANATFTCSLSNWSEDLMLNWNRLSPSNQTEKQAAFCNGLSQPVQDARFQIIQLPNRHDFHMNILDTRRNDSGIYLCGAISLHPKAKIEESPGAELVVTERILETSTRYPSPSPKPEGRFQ

[2] = target: T2, human PD-1 (human, UniProt Q15116 25-167); test: SPR, multiple-cycle, crude Fab from E. coli; antigen form not stated
T2 construct: The immunogen was PD1/Fc (Leu25-Gln167 fused to human IgG1 Pro100-Lys330); also called huPD-1; hPD-1
T2 sequence (Q15116 25-167 limits assumed): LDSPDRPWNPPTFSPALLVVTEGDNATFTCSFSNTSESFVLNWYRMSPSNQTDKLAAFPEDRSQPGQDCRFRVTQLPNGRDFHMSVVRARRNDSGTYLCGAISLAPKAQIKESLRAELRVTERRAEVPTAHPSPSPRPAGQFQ
Excerpt: (§1) A homology model of mouse anti-PD1 Fv was built wherein putative back mutation sites (i.e., buried residues of the frameworks that are different in the mouse and human acceptor sequences) were identified. There were a total of 14 putative back mutation sites. A variant humanized Fab comprising all 14 of the putative back mutation sites of PD1-grafted Ab mutated back to their mouse counterparts (hereinafter identified as “PD1-BM Ab”) comprising the heavy chain variable region sequence set forth in SEQ ID NO: 38 and the light chain variable region sequence set forth in SEQ ID NO: 39, was synthesized. In addition, 14 variants of PD1-BM Ab (hereinafter identified as Fabs 1-14), each having at least one of the putative 14 back mutation sites in PD1-BM Ab mutated back to the human counterpart, were synthesized. These constructs were used to transform E. coli TG1 strain. Single colonies were pick for each individual construct and grown in E. coli medium. Crude chimeric and humanized Fabs were collected and subjected to multiple-cycle affinity estimation by Surface Plasmon Resonance (SPR).

[3] = target: T3, His-tagged human PD-1 protein (human, UniProt Q15116 25-170, limits assumed); test: SPR; Fab-SASA captured on immobilised BSA, his-tagged PD-1 as analyte
T3 construct: SPR analyte; also called his-tagged antigen PD-1; not shown: His tag
T3 sequence (Q15116 25-170 limits assumed): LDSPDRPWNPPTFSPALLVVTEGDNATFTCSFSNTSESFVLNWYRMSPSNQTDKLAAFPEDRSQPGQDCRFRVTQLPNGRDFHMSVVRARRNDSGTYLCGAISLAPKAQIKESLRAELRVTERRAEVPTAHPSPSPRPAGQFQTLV
Procedure: For affinity ranking, BSA was immobilized onto the sensor chip using amine coupling method. The selected Fab-SASA secreted to the culture medium was injected and captured by BSA through the tight binding between BSA and SASA (capture phase). After equilibration, his-tagged antigen PD-1 was injected for 300 seconds (association phase) followed by the injection of running buffer for 900 seconds (dissociation phase). The surface was regenerated before the injection of another three Fab-SASA clones. The process was repeated until all selected Fab-SASA proteins were analyzed. Responses of reference flow cell were subtracted from those of Fab-SASA flow cells during each cycle. The antibodies were ranked by their dissociation rate constants (off-rates, […]). […]

[4] = target: T3, His-tagged human PD-1 protein; test: SPR (Biacore T200); antibody captured by anti-human Fc gamma, His-tagged human PD-1 as analyte
Procedure: Using the HCVR sequence and LCVR sequence of mAb PD1#3, a murine-human chimeric Fab (hereinafter “chimeric IgG”) was prepared which comprised the heavy chain sequence set forth in SEQ ID NO: 32 and the light chain sequence set forth in SEQ ID NO: 34. The heavy chain and light chain of the chimeric IgG are encoded by the nucleic acids set forth in SEQ ID NOs: 33 and 35, respectively. Nucleic acids encded by SEQ ID NO: 33 and SEQ ID NO: 35 which include a leader sequence were amplified and inserted into pTT5 to make an expression plasmid of the full-length IgG. The heavy chain and light chain expression plasmids were used to co-transfect 100 mL HEK293-6E cells. The recombinant IgG secreted into to media was purified using protein A affinity. The purified IgG migrated as ˜170 kDa band in SDS-PAGE under non-reducing conditions, ˜55 kDa and ˜30 kDA bands under reducing condition. The purity of the chimeric IgG is >90%, and the yield form the 100 mL culture was 0.46 mg. The binding affinity between the chimeric IgG and PD1/Fc fusion protein was determined using a Surface Plasmon Resonance (SPR) biosensor, Biacore T200 (GE Healthcare). PD1#3 was immobilized on the sensor chip pre-coated with anti-human Fc gamma. His-tagged human PD-1 protein was used as analyte.

[5] = target: T3, His-tagged human PD-1 protein; test: SPR (Biacore T200); IgG captured by anti-human Fc gamma, His-tagged human PD-1 as analyte, 1:1 model
Procedure: The binding affinity of the purified IgGs to human PD-1 protein were determined using a Surface Plasmon Resonance (SPR) biosensor, Biacore T200 (GE Healthcare). Antibodies were captured on the sensor chip pre-coated with anti-human Fc gamma. His-tagged human PD-1 protein was used as analyte. The data of dissociation (kd) and association (kₐ) rate constants were obtained using Biacore T200 evaluation software. The equilibrium dissociation constants (KD) were calculated from the ratio of kd over kₐ. Binding data for each antibody was processed and fitted to 1:1 interaction model using Biacore T200 evaluation software. All experimental data could be well fitted to the model.

[6] = target: T2, human PD-1; test: SPR, multiple-cycle, crude Fab from E. coli; antigen form not stated; footnote: *out of the detection limit
Excerpt: as §1

[7] = target: T2, human PD-1; test: SPR; antigen form not stated
[8] = target: T2, human PD-1; test: SPR, multiple-cycle, crude Fab from E. coli
Excerpt: as §1

- binding result [1]: no binding
B1: PD1#4 (antibody, V domains shown)
VH: EVRLVESGGGLVKPGGSLKVSCVASGFTFSRYGMSWVRQTPEKRLEWVATISGGGRDTYYPDSVKGRFTISRDNAKNNLYLQMSSLRSEDTALYYCVRQEDIVWFAYWGQGTLVTVSA
VL: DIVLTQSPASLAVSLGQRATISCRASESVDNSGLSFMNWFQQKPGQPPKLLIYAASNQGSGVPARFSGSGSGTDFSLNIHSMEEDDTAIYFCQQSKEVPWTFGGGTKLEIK
notes: Murine hybridoma mAb purified on Protein A; also called mAb PD1#4

- binding result [1]: no binding
B2: PD1#1 (antibody, V domains shown)
VH: QVQLQQPGAELVMPGASVKMSCKASGYTITDCWMHWVKQRPGQGLEWIGAIDTSNSYTTYNQKFKGKATLTVDESSSTAYMQFNSLTSDDSAVYFCAISLQRPFDYWGQGTTLTVSS
VL: DIQMTQSPASLSASVGENVTITCRASENVYSYLAWYQQKEGKSPQLLVYNAKTLTGGVPSRFSGSGSGTQFSLRISSLQPEDFGSYYCLQHYGYPFTFGSGTKLEKK
notes: Murine hybridoma mAb purified on Protein A; also called mAb PD1#1

- kon [2]: 320000 M⁻¹ s⁻¹
- Kd [6]: ≤ 0.025 nM
- koff [6]: < 8.1e-06 s⁻¹
B7: Fab 2 (Fab, V domains shown)
VH: EVQLVESGGGLVQPGGSLRLSCAASGFVFSRYDMAWVRQTPGKGLEWVSFISGGGSNTYYPDTVKGRFTISRDNSKNTLYLQMNSLRAEDTAVYYCISPYYYAMEYWGQGTTVTVSS
VL: DIQMTQSPSSISTSVGDRVTITCKASQDVDTAVAWYQQKPGKSPKLLIHWASTRHTGVPSRFSGSGSGTDFTLTLSSVQPEDLADYFCQQYSTFPWTFGGGTKLEIK
notes: Crude Fab from E. coli; also called PD1-BM VH-A49S

- binding result [8]: no binding
B10: Fab 4 (Fab, V domains shown)
VH: EVQLVESGGGLVQPGGSLRLSCAASGFVFSRYDMAWVRQTPGKGLEWVAFISGGGSNTYYPDTVKGRFTISRDNSKNTLYLQMNSLRAEDTAVYYCIKPYYYAMEYWGQGTTVTVSS
VL: DIQMTQSPSSISTSVGDRVTITCKASQDVDTAVAWYQQKPGKSPKLLIHWASTRHTGVPSRFSGSGSGTDFTLTLSSVQPEDLADYFCQQYSTFPWTFGGGTKLEIK
notes: Crude Fab from E. coli; also called PD1-BM VH-S98K

- Kd [5]: 0.943 nM
- koff [5]: 0.000263 s⁻¹
- kon [5]: 279000 M⁻¹ s⁻¹
B11: PD1-BM-min (IgG) (antibody, V domains shown)
VH: EVQLVESGGGLVQPGGSLRLSCAASGFVFSRYDMAWVRQAPGKGLEWVSFISGGGSNTYYPDTVKGRFTISRDNSKNTLYLQMNSLRAEDTAVYYCISPYYYAMEYWGQGTTVTVSS
VL: DIQMTQSPSSVSASVGDRVTITCKASQDVDTAVAWYQQKPGKAPKLLIYWASTRHTGVPSRFSGSGSGTDFTLTISSLQPEDFATYYCQQYSTFPWTFGGGTKVEIKR
notes: Full-length humanized IgG from HEK293 cells

Continued, binder first:

B3: PD1-BM Ab (Fab) (Fab, V domains shown)
VH: EVQLVESGGGLVQPGGSLRLSCAASGFVFSRYDMAWVRQTPGKGLEWVAFISGGGSNTYYPDTVKGRFTISRDNSKNTLYLQMNSLRAEDTAVYYCISPYYYAMEYWGQGTTVTVSS
VL: DIQMTQSPSSISTSVGDRVTITCKASQDVDTAVAWYQQKPGKSPKLLIHWASTRHTGVPSRFSGSGSGTDFTLTLSSVQPEDLADYFCQQYSTFPWTFGGGTKLEIK
notes: Humanized Fab with all 14 back mutations; also called PD1-BM Fab
- Kd [2]: 0.15 nM
- koff [2]: 5.5e-05 s⁻¹
- kon [2]: 360000 M⁻¹ s⁻¹
- Kd [3]: 0.0564 nM
- koff [3]: 1.78e-05 s⁻¹
- kon [3]: 315000 M⁻¹ s⁻¹

B4: chimeric IgG (antibody, V domains shown)
VH: EVQLVESGGDLVKPGGSLKLSCAASGFVFSRYDMAWVRQTPEKRLEWVAFISGGGSNTYYPDTVKGRFTISRDNAKNTLYLQMTSLKSEDTAVYYCISPYYYAMEYWGQGTSVTVSS
VL: DIVMTQSHKFISTSVGDRVSITCKASQDVDTAVAWYQQKPGQSPKLLIHWASTRHTGVPDRFTGGGSGTDFTLTLSNVQSEDLADYFCQQYSTFPWTFGGGTRLEIKR
notes: Full-length IgG from HEK293-6E cells; also called murine-human chimeric antibody derived from PD1#3
- Kd [4]: 0.48 nM
- Kd [5]: 0.487 nM
- koff [5]: 0.000129 s⁻¹
- kon [5]: 265000 M⁻¹ s⁻¹

B5: PD1#3 (antibody, V domains shown)
VH: EVQLVESGGDLVKPGGSLKLSCAASGFVFSRYDMAWVRQTPEKRLEWVAFISGGGSNTYYPDTVKGRFTISRDNAKNTLYLQMTSLKSEDTAVYYCISPYYYAMEYWGQGTSVTVSS
VL: DIVMTQSHKFISTSVGDRVSITCKASQDVDTAVAWYQQKPGQSPKLLIHWASTRHTGVPDRFTGGGSGTDFTLTLSNVQSEDLADYFCQQYSTFPWTFGGGTRLEIK
notes: Murine hybridoma mAb purified on Protein A; also called mAb PD1#3
- binding result [1]: no binding

B6: AS05617 (IgG) (antibody, V domains shown)
VH: EVQLVESGGGLVQPGGSLRLSCAASGFVFSRYDMAWVRQTPGKGLEWVSFISGGGSNTYYPDTVKGRFTISRDNSKNTLYLQMNSLRAEDTAVYYCISPYYYAMEYWGQGTTVTVSS
VL: DIQMTQSPSSISTSVGDRVTITCKASQDVDTAVAWYQQKPGKSPKLLIYWASTRHTGVPSRFSGSGSGTDFTLTISSLQPEDFADYFCQQYSTFPWTFGGGTKVEIKR
notes: as for B11
- Kd [5]: 1 nM
- koff [5]: 0.000183 s⁻¹
- kon [5]: 183000 M⁻¹ s⁻¹

B8: PD1-BM-min Ab (Fab) (Fab, V domains shown)
VH: EVQLVESGGGLVQPGGSLRLSCAASGFVFSRYDMAWVRQAPGKGLEWVSFISGGGSNTYYPDTVKGRFTISRDNSKNTLYLQMNSLRAEDTAVYYCISPYYYAMEYWGQGTTVTVSS
VL: DIQMTQSPSSVSASVGDRVTITCKASQDVDTAVAWYQQKPGKAPKLLIYWASTRHTGVPSRFSGSGSGTDFTLTISSLQPEDFATYYCQQYSTFPWTFGGGTKVEIK
notes: Humanized Fab with only the VH A97I and K98S back mutations; also called PD1-Grafted VH-A97I & K98S
- Kd [7]: 0.253 nM
- koff [7]: 8.4e-05 s⁻¹
- kon [7]: 332000 M⁻¹ s⁻¹

B9: PD1-BM Ab (IgG) (antibody, V domains shown)
VH: EVQLVESGGGLVQPGGSLRLSCAASGFVFSRYDMAWVRQTPGKGLEWVAFISGGGSNTYYPDTVKGRFTISRDNSKNTLYLQMNSLRAEDTAVYYCISPYYYAMEYWGQGTTVTVSS
VL: DIQMTQSPSSISTSVGDRVTITCKASQDVDTAVAWYQQKPGKSPKLLIHWASTRHTGVPSRFSGSGSGTDFTLTLSSVQPEDLADYFCQQYSTFPWTFGGGTKLEIKR
notes: as for B11
- Kd [5]: 0.579 nM
- koff [5]: 0.000139 s⁻¹
- kon [5]: 241000 M⁻¹ s⁻¹
